Source: patent publication US20040254341A1 (published 2004)
Non-standard residues stand in square brackets, D forms with d. No end group written: not given here. Nle = CCCC[C@H](N)C(=O)O

Target: human Asp2 aspartyl protease (Hu-Asp2), purified enzyme used in the in vitro cleavage assays (human, UniProt P56817 46-456, limits assumed)
Assay: cell-based or functional assay

Sequence of human Asp2 aspartyl protease (Hu-Asp2), purified enzyme used in the in vitro cleavage assays (P56817 46-456 Q214H limits assumed): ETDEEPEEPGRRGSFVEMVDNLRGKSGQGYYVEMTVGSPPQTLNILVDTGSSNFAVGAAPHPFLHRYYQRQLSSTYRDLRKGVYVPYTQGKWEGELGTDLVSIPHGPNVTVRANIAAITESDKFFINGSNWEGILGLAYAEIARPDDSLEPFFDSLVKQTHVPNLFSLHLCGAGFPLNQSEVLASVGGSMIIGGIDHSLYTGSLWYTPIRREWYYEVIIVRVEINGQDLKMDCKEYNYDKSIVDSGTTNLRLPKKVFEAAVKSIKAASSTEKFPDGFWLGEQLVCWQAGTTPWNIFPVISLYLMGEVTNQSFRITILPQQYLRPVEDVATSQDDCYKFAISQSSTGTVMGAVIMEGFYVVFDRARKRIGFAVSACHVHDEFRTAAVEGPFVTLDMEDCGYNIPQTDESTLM

| Binder | activity against wild type peptide | activity against wild-type | also measured |
| --- | --- | --- | --- |
| SEVSYEVEFR [SEVSY-↓-EVEFR] | ~70 fold | – | – |
| SEVSYDAEFR [SEVSY-↓-DAEFR] | – | ~9 fold | – |
| KTISLDVEPS [KTISL-↓-DVEPS] | – | – | activity against wild-type peptide: ~35 fold |
| SEVSYEAEFR [SEVSY-↓-EAEFR] | – | ~40 fold | – |
| KTITLEVEPS [KTITL-↓-EVEPS] | 6 fold | – | – |
| KTIN[Nle]DVDPS [KTINnle-↓-DVDPS] | – | – | activity against peptide #3 (SEQ ID NO:134): ~10 fold reduction |
